In PMC3791464 (eLife, 2013):

Legend:
[1] = biological target: Drosophila ORC1–5 (ORC lacking Orc6), purified, 6×His-Orc1 and MBP–Orc4 (Drosophila melanogaster) (UniProt O16810); test: fluorescence polarisation; fluorescence anisotropy, apparent Kd; 30 nM Orc6 N-terminally labelled with Alexa Fluor 488, ORC1–5 in twofold dilutions from 1 µM to 122 pM; 50 mM Tris HCl pH 7.8, 300 mM KCl, 5% glycerol, 1 mM DTT, 0.1 mg/ml BSA; 1 hr on ice; single-site fit with ligand depletion
[2] = biological target: T1, Drosophila Orc1 in untagged recombinant ORC (Drosophila melanogaster, UniProt O16810 1-924); test: SEC; analytical gel filtration of purified, co-expressed untagged Drosophila ORC on a Superose 6 column; elutes as a hexamer of ~390 kDa; conditions: both partners purified
T1 construct: Drosophila Orc1; source: High5 cells co-infected with six baculoviruses, co-purified (Ni, amylose, TEV, gel filtration); not shown: 6×His, N-terminal, cleaved
T1 sequence (looked up): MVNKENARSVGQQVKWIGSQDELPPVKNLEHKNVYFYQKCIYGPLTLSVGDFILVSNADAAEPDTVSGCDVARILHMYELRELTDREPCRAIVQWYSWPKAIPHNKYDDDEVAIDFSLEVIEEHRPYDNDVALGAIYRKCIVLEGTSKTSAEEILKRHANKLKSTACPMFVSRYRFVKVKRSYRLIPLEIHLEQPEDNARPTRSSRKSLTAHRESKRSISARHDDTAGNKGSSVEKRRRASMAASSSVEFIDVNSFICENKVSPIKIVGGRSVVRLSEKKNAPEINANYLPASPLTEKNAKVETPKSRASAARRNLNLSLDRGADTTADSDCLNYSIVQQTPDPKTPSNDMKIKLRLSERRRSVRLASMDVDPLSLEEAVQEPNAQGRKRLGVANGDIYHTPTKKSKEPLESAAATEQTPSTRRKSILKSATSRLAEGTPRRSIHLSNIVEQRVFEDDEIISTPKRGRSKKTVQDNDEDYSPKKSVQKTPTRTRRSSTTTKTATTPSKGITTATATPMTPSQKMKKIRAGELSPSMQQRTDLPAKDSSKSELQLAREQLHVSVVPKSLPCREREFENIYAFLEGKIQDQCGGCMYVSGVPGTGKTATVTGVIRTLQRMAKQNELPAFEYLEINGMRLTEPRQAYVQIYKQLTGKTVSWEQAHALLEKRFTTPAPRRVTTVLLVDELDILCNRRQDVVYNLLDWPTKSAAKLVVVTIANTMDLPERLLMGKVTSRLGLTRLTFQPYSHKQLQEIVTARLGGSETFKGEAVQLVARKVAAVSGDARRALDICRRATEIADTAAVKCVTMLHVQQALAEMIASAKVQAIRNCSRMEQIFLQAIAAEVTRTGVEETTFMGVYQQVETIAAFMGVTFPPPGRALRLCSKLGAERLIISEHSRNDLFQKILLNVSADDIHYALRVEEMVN

[3] = biological target: T2, Drosophila ORC1–5 (ORC lacking Orc6), purified, 6×His-Orc1 and MBP–Orc4 (Drosophila melanogaster, UniProt O16810 1-924; Q24168 1-618; Q7K2L1 1-721; Q9W102 1-459; Q24169 1-460); test: fluorescence polarisation; fluorescence anisotropy, apparent Kd; 30 nM Orc6 N-terminally labelled with Alexa Fluor 488, ORC1–5 in twofold dilutions from 1 µM to 122 pM; 50 mM Tris HCl pH 7.8, 300 mM KCl, 5% glycerol, 1 mM DTT, 0.1 mg/ml BSA; 1 hr on ice; single-site fit with ligand depletion; conditions: both partners purified
T2 construct: Drosophila Orc1; Drosophila Orc2, untagged; Drosophila Orc3, untagged; Drosophila Orc4; Drosophila Orc5, untagged; source: High5 cells co-infected with five baculoviruses, purified (Ni, amylose, gel filtration; TEV step omitted); not shown: 6×His, N-terminal, kept; MBP, N-terminal, kept; copies: + + + +

[4] = biological target: T3, Drosophila ORC1–5 in MBP-tagged ORC for EM (6×His-Orc1, other subunits untagged) (Drosophila melanogaster, UniProt O16810 1-924; Q24168 1-618; Q7K2L1 1-721; Q9W102 1-459; Q24169 1-460); test: co-purification over several chromatography steps; MBP–Orc6 187–257 co-expressed with 6×His-Orc1 and untagged Orc2–Orc5 in High5 cells; Ni affinity, amylose affinity and gel filtration, TEV step omitted; conditions: partners not purified
T3 construct: Drosophila Orc1; Drosophila Orc2, untagged; Drosophila Orc3, untagged; Drosophila Orc4, untagged; Drosophila Orc5, untagged; source: High5 cells co-infected, co-purified with MBP–Orc6 187–257 (Ni, amylose, gel filtration; TEV step omitted); not shown: 6×His, N-terminal, kept; copies: + + + +

## Drosophila Orc6-Y225S, N-terminal 6×His (from UniProt Q9Y1B2 1-257) (natural protein)
[1]
  fold reduction of affinity against wild type Orc6: > 100 fold

B1: Drosophila Orc2 in untagged recombinant ORC (natural protein, Drosophila melanogaster, UniProt Q24168 1-618, looked up)
chain: MSASNKGGYKTPRKENLMSIENLTNSEEESEDLNTAMVGNAVESQPKVTSRRSTRRPSPTKKYQAYQKESNGKGQEERIVVNYVEMSDERSSDAEDQEEEESIEESENAARPAAKDLHLIQSEYNVAGTSMFGFNTPKKRDAMALAALNATPCTPKTPKTPRLGVKTPDTKRKKSMDQPKTPAHVRTRVKKQIAKIVADSDEDFSGDESDFRPSDEESSSSSSSSDAGNSSDNDAADDEPKTPSRARRAIVVPVLPKTPSAARLRQSARAKKSNEFVPESDGYFHSHASSKILTSDHTLDRLKNPRLAADRVFSLLSEIKTSAEHEGSINAIMEEYRSYFPKWMCILNEGFNILLYGLGSKHQLLQSFHREVLHKQTVLVVNGFFPSLTIKDMLDSITSDILDAGISPANPHEAVDMIEEEFALIPETHLFLIVHNLDGAMLRNVKAQAILSRLARIPNIHLLASIDHINTPLLWDQGKLCSFNFSWWDCTTMLPYTNETAFENSLLVQNSGELALSSMRSVFSSLTTNSRGIYMLIVKYQLKNKGNATYQGMPFRDLYSSCREAFLVSSDLALRAQLTEFLDHKLVKSKRSVDGSEQLTIPIDGALLQQFLEEQEKK
notes: Drosophila Orc2, no purification tag; source: High5 cells co-infected with six baculoviruses, co-purified (Ni, amylose, TEV, gel filtration)
[2]
  binding result: binds

B2: Drosophila Orc6 C-terminal domain (187–257), N-terminal 6×His (domain or fragment, Drosophila melanogaster, UniProt Q9Y1B2 187-257, looked up)
chain: KESKVPSSTDMEGKLKENQNENIKGHEAKKAHKPPPEDYEIWKARMLAKAQAKLKELEASQSHMDSQLLEA
modifications: Alexa Fluor 488 on the N-terminus (only in the fluorescence anisotropy assay)
notes: Drosophila Orc6, residues 187-257 (C-terminal domain); not detected in Western blots of whole-cell extract, but seen in the pull-downs; also called Orc6 187–257; Orc6 CTD; source: High5 cells (baculovirus): in lysate of co-infected cells; also purified (HisTrap, gel filtration); not shown: 6×His, N-terminal, kept
[3]
  Kd: 4.8 ± 0.6 nM

B3: Drosophila MBP–Orc6 187–257 (domain or fragment, Drosophila melanogaster, UniProt Q9Y1B2 187-257, looked up)
chain: B2 chain
notes: Drosophila Orc6, residues 187-257; also called N-terminally MBP-tagged C-terminal domain of Orc6 (amino acids 187–257); MBP-fusion of the C-terminal domain of Orc6; source: High5 cells co-infected with the ORC1–5 subunits, co-purified (Ni, amylose, gel filtration); not shown: MBP, N-terminal, kept
[4]
  binding result: binds

B4: Drosophila Orc5 in untagged recombinant ORC (natural protein, Drosophila melanogaster, UniProt Q24169 1-460, looked up)
chain: MEAICSSLEPLFPCREAAIETLGELIGDSSETYPSAIYLFGHSGTGKTALTRAFLKECGKRQNVRTAHLNAIECYTTKIMLEILLDSLAPDQGDALKVDNMLDFVEQLRRQAATRVEDQGFLIAVDNAERLRDMDANVLPVLLRLQELTNLNLCVILLSQLPFEKFYNKTGLSEIVCLHLAQYNKAETQRILGSDFQQVRNQLLEQFAQDKKRLEICQEAVTEDFYNNYLNLFLSVFYKACRDVPELQLTARKCLSTYLEPVLDGTVDATDISRLWRHIAGPLRSALTQIYMRIEKPAEEVEDFTAIEDQSVRKLAQSLELPYYAKFLLIAAFLASHNAAKQDKRLFVKHHGKQRKRMQTVNARAKTTEKMSTTLGPKSFSIDRLLAIFYAILEEKVGLTCNLLSQISTLVHLNLLSFVSGEQNIMEGSARLQCTIGLEFVLQIGKVVGFNVRQYLCDFM
notes: Drosophila Orc5; the methods list Orc4 twice and leave Orc5 out of the untagged subunits; source: High5 cells co-infected with six baculoviruses, co-purified (Ni, amylose, TEV, gel filtration)
[2]
  binding result: binds

B5: Drosophila Orc3 in untagged recombinant ORC (natural protein, Drosophila melanogaster, UniProt Q7K2L1 1-721, looked up)
chain: MDPTISVSKGCFVYKNGATRAGKKAASKRKRPAAESSSLLGKEVVQQPFYEEYRKAWNQINDHIADLQHRSYARTLEQLVDFVVGQAERDTPDEVLPTAALLTGINQPDHLSQFTALTQRLHAQRAAMVCVLQSRDCATLKAAVETLVFGLVEDNAEVEQMEDEDEDEDGAERDRKRLRRSQCTMKQLKSWYTNNFDSEQKRRQLVVILPDFECFNASVLQDLILILSAHCGSLPFVLVLGVATAMTAVHGTLPYHVSSKIRLRVFQTQAAPTGLNEVLDKVLLSPKYAFHLSGKTFKFLTHIFLYYDFSIHGFIQGFKYCLMEHFFGGNAFALCTDYSKALGRIKQLTHEDMETIRRLPSFRPYVEQINDCKRIIAVLTDDDYLKKKLPQLLRDCLLHFLLFRCSLEFLTELVGDLPRCPLGKLRRELYVNCLNRAIISTPEYKECLQMLSFLSKDEFVAKVNRALERTEQFLVEEIAPLELGEACTAVLRPKLEAIRLAVDEVVKATMATITTTSPNETRQATDHLTPVASRQELKDQLLQRSKEDKMRHQLNTPTTQFGRALQKTLQLIETQIVQDHLRALQDAPPIHELFVFSDIATVRRNIIGAPRAALHTALNNPHFYMQCKCCELQDQSLLVGTLPDLSVVYKLHLECGRMINLFDWLQAFRSVVSDSDHEEVAQEQIDPQIQARFTRAVAELQFLGYIKMSKRKTDHATRLTW
notes: Drosophila Orc3, no purification tag; source: High5 cells co-infected with six baculoviruses, co-purified (Ni, amylose, TEV, gel filtration)
[2]
  binding result: binds

B6: Drosophila Orc4 in untagged recombinant ORC (natural protein, Drosophila melanogaster, UniProt Q9W102 1-459, looked up)
chain: MPEADRELVSIRRFLKERLQRDYTTLRGYAKERSNVRLLLQRTAEMGESNSLLLLGPRGSGKTTLINSVLADLLPNKSFGENTLIVHLDGNLHTDDRVALKSITVQMQLENAADGKVFGSFAENLAFLLQCLKAGGKHSKSVIFILEEFDLFCAHHNQTLLYNLFDVSQSAQAPICVLGVTCRLDVIELLEKRVKSRFSHRQVFLFPSLRRFEDYVDLCRDLLSLPTGNSLLLAAEKIYNLQNIQSGALYFSRNHFDPGEYGFSPRLRDAWNKQICKVLATQQARSTLQALHDFDISEAYLKNFLFRLVAHLRPQSPHITAEKMAAVGSQFEGDDKIELLCGLSVLELCLIIAIKHHSQIYDRDSFNFEIIYARFSKFAKVSTTMQAVERSIVLKAFEHLRIAELIMPLTGGAGGGVGKVQKEFEMHKLALTYSQIHHCMQRYQALPTEVAQWAQSSLI
notes: Drosophila Orc4; source: High5 cells co-infected with six baculoviruses, co-purified (Ni, amylose, TEV, gel filtration); not shown: MBP, N-terminal, cleaved
[2]
  binding result: binds

B7: Drosophila Orc6, full-length (1–257), N-terminal 6×His (natural protein, Drosophila melanogaster, UniProt Q9Y1B2 1-257, looked up)
chain: MTTLIEQLITKMGLREEPNVLEKTTELVRLLELRSTNVPLQINEYGKIVLCADLASCMIGIAFDKEQALKLSGLRKSQYLNNKRMFEKLLDLNKLASVNDICVQLGLNEVARKAEELMTLFKGVAATEDMGTDTSHPQYATMAVFQACRLLKKKVSKSKLMPFSNLRPSQFQLLEQQWERMIAKHHKESKVPSSTDMEGKLKENQNENIKGHEAKKAHKPPPEDYEIWKARMLAKAQAKLKELEASQSHMDSQLLEA
modifications: Alexa Fluor 488 on the N-terminus (only in the fluorescence anisotropy assay)
notes: Drosophila Orc6, residues 1-257; also called wild-type Orc6; Orc6 WT; source: High5 cells (baculovirus): in lysate of co-infected cells; also purified (HisTrap, gel filtration); not shown: 6×His, N-terminal, kept
[3]
  Kd: 5 ± 0.7 nM

B8: Drosophila Orc6 in untagged recombinant ORC (natural protein, Drosophila melanogaster, UniProt Q9Y1B2 1-257, looked up)
chain: B7 chain
notes: Drosophila Orc6, no purification tag; source: High5 cells co-infected with six baculoviruses, co-purified (Ni, amylose, TEV, gel filtration)
[2]
  binding result: binds
